In PMC5760668, “Structure function and engineering of multifunctional non-heme iron dependent oxygenases in fungal meroterpenoid biosynthesis” (Nature Communications, 2018):

What was measured:
AusE-(6P-A298) = target: T1, AusE-(6P-A298) (Aspergillus nidulans, UniProt Q5AR34); assay: X-ray crystal structure; format: binding; conditions: Mn(II), anaerobic; co-substrate
T1 construct: crystal construct, N-terminal truncated 6P-A298 in pET28a, E. coli, EDTA-treated, Mn(II) reconstituted; homodimer
T1 sequence (Q5AR34 6-298): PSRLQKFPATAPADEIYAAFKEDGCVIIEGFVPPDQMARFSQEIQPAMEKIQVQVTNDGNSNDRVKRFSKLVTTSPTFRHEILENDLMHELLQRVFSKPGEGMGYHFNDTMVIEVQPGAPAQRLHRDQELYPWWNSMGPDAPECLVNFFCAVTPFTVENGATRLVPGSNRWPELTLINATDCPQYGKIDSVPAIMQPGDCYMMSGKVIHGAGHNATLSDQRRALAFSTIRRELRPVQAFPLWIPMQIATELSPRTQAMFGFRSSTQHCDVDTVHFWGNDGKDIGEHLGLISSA

[1] = target: T2, PrhA-(6P-A298), N-terminal truncated and C-terminal chimeric PrhA (Penicillium brasilianum, UniProt A0A1E1FFL0, E295I/A296S/P297S/S298A); assay: X-ray crystal structure; format: binding; conditions: Fe(II); crystal soaked with αKG; co-substrate, bidentate chelation
T2 construct: crystal construct PrhA-(6P-A298): residues from Pro6, C-terminal Glu295-Val301 replaced by AusE Ile295-Ser296-Ser297-Ala298, in pET28a, EDTA-treated; homodimer; Asp276′ of the other chain contacts substrate
T2 sequence (A0A1E1FFL0 6-298 E295I/A296S/P297S/S298A): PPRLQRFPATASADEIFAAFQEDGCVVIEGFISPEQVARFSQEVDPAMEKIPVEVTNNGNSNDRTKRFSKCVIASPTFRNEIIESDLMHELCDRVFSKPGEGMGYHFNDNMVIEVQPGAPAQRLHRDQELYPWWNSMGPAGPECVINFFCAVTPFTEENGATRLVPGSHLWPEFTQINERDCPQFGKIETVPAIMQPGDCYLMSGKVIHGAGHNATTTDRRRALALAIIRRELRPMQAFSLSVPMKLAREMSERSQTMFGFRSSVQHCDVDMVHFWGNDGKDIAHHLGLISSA

[2] = target: the molecule itself; assay: crystal structure; anaerobic vapor diffusion at 20 °C; AusE with MnCl2 (and αKG); PrhA and mutants crystallised as apo form and soaked with FeSO4, αKG and substrate; homodimer in the crystal
[3] = target: the molecule itself; assay: dynamic light scattering; purified enzymes; monomodal distribution, polydispersity 18.2 and 21.1%; predicted masses compared with the calculated 35.1 kDa

O=C(O)CCC(=O)C(=O)O [α-ketoglutarate]
X-ray crystal structure (AusE-(6P-A298)): X-ray crystal structures of AusE complexed with Mn(II) and αKG (AusE-Mn/αKG)
X-ray crystal structure [1]: in complex with Fe(II) and αKG (PrhA-Fe/αKG)

B1: N-terminal truncated AusE-(6P-A298) (enzyme, Aspergillus nidulans, UniProt Q5AR34 6-298, looked up)
chain: T1 sequence (Q5AR34 6-298)
notes: AusE, Fe(II)/αKG-dependent oxygenase of austinol biosynthesis, Aspergillus nidulans; residues P6-A298, cloned NdeI/BamHI into pET28a; Crystallised with Mn(II), and with Mn(II) and αKG; also called AusE-Mn; AusE-Mn/αKG; source: E. coli Rosetta 2(DE3)pLysS, purified (HisTrap HP, HiTrap Q HP, EDTA treatment, Superdex 200)
stoichiometry N [2]: 2

B2: N-terminal truncated and C-terminal chimeric PrhA-(6P-A298) (enzyme)
chain: T2 sequence (A0A1E1FFL0 6-298 E295I/A296S/P297S/S298A)
notes: PrhA, Fe(II)/αKG-dependent oxygenase of paraherquonin biosynthesis, Penicillium brasilianum; from P6 up to the residue before Glu295 (Glu295-Val301 were replaced); AusE, Aspergillus nidulans, residues Ile295-Ser296-Ser297-Ala298, put in place of PrhA Glu295-Val301; Crystallised as apo form; Fe(II), αKG and preaustinoid A1 (5) were soaked in; also called PrhA-Fe; PrhA-Fe/αKG; source: E. coli …
stoichiometry N [2]: 2

B3: wild-type AusE (AusE-(M1-A298)) (enzyme, Aspergillus nidulans, UniProt Q5AR34 1-298, looked up)
chain: MGSATPSRLQKFPATAPADEIYAAFKEDGCVIIEGFVPPDQMARFSQEIQPAMEKIQVQVTNDGNSNDRVKRFSKLVTTSPTFRHEILENDLMHELLQRVFSKPGEGMGYHFNDTMVIEVQPGAPAQRLHRDQELYPWWNSMGPDAPECLVNFFCAVTPFTVENGATRLVPGSNRWPELTLINATDCPQYGKIDSVPAIMQPGDCYMMSGKVIHGAGHNATLSDQRRALAFSTIRRELRPVQAFPLWIPMQIATELSPRTQAMFGFRSSTQHCDVDTVHFWGNDGKDIGEHLGLISSA
notes: AusE, Fe(II)/αKG-dependent oxygenase, Aspergillus nidulans; It may have been the 6-298 crystallisation construct; also called recombinant AusE; source: E. coli Rosetta 2(DE3)pLysS, purified (HisTrap HP, HiTrap Q HP, Superdex 200)
stoichiometry N [3]: 2

B4: wild-type PrhA (PrhA-(M1-V301)) (enzyme, Penicillium brasilianum, UniProt A0A1E1FFL0 1-301, looked up)
chain: MAPMIPPRLQRFPATASADEIFAAFQEDGCVVIEGFISPEQVARFSQEVDPAMEKIPVEVTNNGNSNDRTKRFSKCVIASPTFRNEIIESDLMHELCDRVFSKPGEGMGYHFNDNMVIEVQPGAPAQRLHRDQELYPWWNSMGPAGPECVINFFCAVTPFTEENGATRLVPGSHLWPEFTQINERDCPQFGKIETVPAIMQPGDCYLMSGKVIHGAGHNATTTDRRRALALAIIRRELRPMQAFSLSVPMKLAREMSERSQTMFGFRSSVQHCDVDMVHFWGNDGKDIAHHLGLEAPSVHV
notes: PrhA, Fe(II)/αKG-dependent oxygenase, Penicillium brasilianum; It may have been the chimeric 6-298 crystallisation construct; also called recombinant PrhA; source: E. coli Rosetta 2(DE3)pLysS, purified (HisTrap HP, HiTrap Q HP, Superdex 200)
stoichiometry N [3]: 2
